Results reported in patent US20260132182A1 (published 2026).
Starred links: 1 amine or outer side, 2 acyl side, 3 side chain; linkers in the order of their positions; H or OH if unused. Non-standard residues stand in square brackets, D forms with d. Groups on a side chain read outwards from the residue. *: point of attachment. Undecanoyl(11-OPh(4-COOH)) = O=C(O)c1ccc(OCCCCCCCCCCC(=O)*)cc1; Decanoyl(10-(4-HOOC-PhO)) = O=C(O)c1ccc(OCCCCCCCCCC(=O)*)cc1; Decanoyl(10-O(3-COOH-Ph)) = O=C(O)c1cccc(OCCCCCCCCCC(=O)*)c1; C20 diacid = O=C(O)CCCCCCCCCCCCCCCCCCC(=O)*; C18 diacid = O=C(O)CCCCCCCCCCCCCCCCC(=O)*; C16 diacid = O=C(O)CCCCCCCCCCCCCCC(=O)*; γGlu = O=C(O)[C@H](CCC(=O)[*:2])N[*:1]; εLys = N[C@@H](CCCCN[*:1])C(=O)[*:2]; Trx = NC[C@H]1CC[C@H](C(=O)O)CC1; AEEA = NCCOCCOCC(=O)O; Aib = CC(C)(N)C(=O)O

How the values were obtained:
[1] = target: T1, human amylin-3 (a) receptor (human, UniProt P30988 25-474; O60896 24-148); assay: cell-based or functional assay
T1 sequence (looked up) 1: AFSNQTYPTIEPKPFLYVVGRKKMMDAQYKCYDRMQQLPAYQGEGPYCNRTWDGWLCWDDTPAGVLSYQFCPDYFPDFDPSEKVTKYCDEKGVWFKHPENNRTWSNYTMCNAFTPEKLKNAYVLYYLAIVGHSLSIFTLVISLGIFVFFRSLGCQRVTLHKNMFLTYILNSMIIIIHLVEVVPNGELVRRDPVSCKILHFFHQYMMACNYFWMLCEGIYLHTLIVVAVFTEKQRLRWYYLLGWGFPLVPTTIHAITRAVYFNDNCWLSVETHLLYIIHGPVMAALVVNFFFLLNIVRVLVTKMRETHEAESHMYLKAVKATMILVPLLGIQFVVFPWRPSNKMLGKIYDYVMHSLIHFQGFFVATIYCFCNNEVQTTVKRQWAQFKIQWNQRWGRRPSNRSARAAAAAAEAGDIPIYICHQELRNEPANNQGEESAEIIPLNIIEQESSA
T1 sequence (looked up) 2: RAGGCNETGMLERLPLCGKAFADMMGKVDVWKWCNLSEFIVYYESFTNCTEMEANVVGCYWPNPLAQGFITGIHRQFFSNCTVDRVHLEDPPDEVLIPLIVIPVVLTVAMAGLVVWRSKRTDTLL

human GLP-1 receptor = human GLP-1 receptor (human, UniProt P43220 24-463); assay: cell-based or functional assay

B1: Compound 0159 (peptide)
peptide: H[Aib]EGTFTSDVSSYLEGQAAK([εLys-AEEA-AEEA-γGlu-C18 diacid])EFIAWLVRGRGGGGGGGGGEASELSTAALGRLSAELHELATLPRTETGSGSP-NH2
Human AmyR3 potency [EC50 (pM)] [1]: 19.3 pM | Human GLP-1R potency [EC50 (pM)] (human GLP-1 receptor): 30.3 pM

B2: Compound 0160 (peptide)
peptide: H[Aib]EGTFTSDVSSYLEEQAARK([γGlu-C18 diacid])FIAWLVRGRGGGGGGGGK([γGlu-C18 diacid])EASELSTAALGRLSAELHELATLPRTETGSGSP-NH2
Human AmyR3 potency [EC50 (pM)] [1]: 27.3 pM | Human GLP-1R potency [EC50 (pM)] (human GLP-1 receptor): 11.9 pM

B3: Compound 0179 (peptide)
peptide: H[Aib]EGTFTSDVSSYLEEQAAREFIEWLVRGRK([AEEA-AEEA-γGlu-Trx-C20 diacid])EAEAEASELSTAALGRLSAELHELATLPRTETGSGSP-NH2
Human AmyR3 potency [EC50 (pM)] [1]: 35.9 pM | Human GLP-1R potency [EC50 (pM)] (human GLP-1 receptor): 8.8 pM

B4: Compound 0180 (peptide)
peptide: H[Aib]EGTFTSDVSSYLEEQAAREFIEWLVRGRK([εLys-AEEA-AEEA-γGlu-Trx-C20 diacid])EAEAEASELSTAALGRLSAELHELATLPRTETGSGSP-NH2
Human AmyR3 potency [EC50 (pM)] [1]: 37 pM | Human GLP-1R potency [EC50 (pM)] (human GLP-1 receptor): 6.4 pM

B5: Compound 0191 (peptide)
peptide: H[Aib]EGTFTSDVSSYLEGQAAREFIAWLVRGRGQEPK([AEEA-AEEA-γGlu-C18 diacid])GQAPASRLSTEALGRLSAELHELATLPRTETGSGSP-NH2
Human AmyR3 potency [EC50 (pM)] [1]: 54.8 pM | Human GLP-1R potency [EC50 (pM)] (human GLP-1 receptor): 5.9 pM

B6: Compound 0202 (peptide)
peptide: H[Aib]EGTFTSDVSSYLEGQAAK([AEEA-AEEA-γGlu-C20 diacid])EFIAWLVRGRGQEPGQAPEASELSTAALGRLSAELHELATLPRTETGSGSP-NH2
Human AmyR3 potency [EC50 (pM)] [1]: 28.4 pM | Human GLP-1R potency [EC50 (pM)] (human GLP-1 receptor): 10.5 pM

B7: Compound 0231 (peptide)
peptide: HWEGTFTSDVSSYLEEQAARK([AEEA-AEEA-γGlu-Decanoyl(10-(4-HOOC-PhO))])FIEWLVRGRGEGGGGGASELSTAALGRLSK([AEEA-AEEA-γGlu-Decanoyl(10-(4-HOOC-PhO))])ELHELATLPRTETGSGSP-NH2
Human AmyR3 potency [EC50 (pM)] [1]: 68 pM | Human GLP-1R potency [EC50 (pM)] (human GLP-1 receptor): 5.6 pM

B8: Compound 0232 (peptide)
peptide: HWEGTFTSDVSSYLEEQAARK([AEEA-AEEA-γGlu-Decanoyl(10-(4-HOOC-PhO))])FIEWLVRGRGEGGGGGASELSTAALGRLSAELHELK([AEEA-AEEA-γGlu-Decanoyl(10-(4-HOOC-PhO))])TLPRTETGSGSP-NH2
Human AmyR3 potency [EC50 (pM)] [1]: 74.2 pM | Human GLP-1R potency [EC50 (pM)] (human GLP-1 receptor): 6.4 pM

B9: Compound 0233 (peptide)
peptide: HWEGTFTSDVSSYLEEQAAREFIEWLVRGK([AEEA-AEEA-γGlu-Decanoyl(10-(4-HOOC-PhO))])GEGGGGGASELSTAALGRLSK([AEEA-AEEA-γGlu-Decanoyl(10-(4-HOOC-PhO))])ELHELATLPRTETGSGSP-NH2
Human AmyR3 potency [EC50 (pM)] [1]: 182 pM | Human GLP-1R potency [EC50 (pM)] (human GLP-1 receptor): 46.4 pM

B10: Compound 0234 (peptide)
peptide: HWEGTFTSDVSSYLEEQAAREFIEWLVRGK([AEEA-AEEA-γGlu-Decanoyl(10-(4-HOOC-PhO))])GEGGGGGASELSTAALGRLSAELHELK([AEEA-AEEA-γGlu-Decanoyl(10-(4-HOOC-PhO))])TLPRTETGSGSP-NH2
Human AmyR3 potency [EC50 (pM)] [1]: 38.4 pM | Human GLP-1R potency [EC50 (pM)] (human GLP-1 receptor): 38.9 pM

B11: Compound 0040 (peptide)
peptide: H[Aib]EGTFTSDVSSYLEGQAAK([AEEA-AEEA-γGlu-C18 diacid])EFIAWLVRGRGGGGEASELSTAALGRLSAELHELATLPRTETGSGSP-NH2
Human AmyR3 potency [EC50 (pM)] [1]: 7.7 pM | Human GLP-1R potency [EC50 (pM)] (human GLP-1 receptor): 20.7 pM

B12: Compound 0235 (peptide)
peptide: H[Aib]EGTFTSDVSSYLEEQAAREFIAWLVRGK([AEEA-AEEA-γGlu-Decanoyl(10-O(3-COOH-Ph))])K([AEEA-AEEA-γGlu-Decanoyl(10-O(3-COOH-Ph))])GGGGASELSTAALGRLSAELHELATLPRTETGSGSP-NH2
Human AmyR3 potency [EC50 (pM)] [1]: 24 pM | Human GLP-1R potency [EC50 (pM)] (human GLP-1 receptor): 10.4 pM

B13: Compound 0254 (peptide)
peptide: HWEGTFTSDVSSYLEEQAARK([AEEA-AEEA-γGlu-Trx-C20 diacid])FIEWLVRGRGEGGGGGASELSTAALGRLSAELHELATLPRTETGSGSP-NH2
Human AmyR3 potency [EC50 (pM)] [1]: 7.7 pM | Human GLP-1R potency [EC50 (pM)] (human GLP-1 receptor): 8.9 pM

B14: Compound 0255 (peptide)
peptide: HWEGTFTSDVSSYLEEQAARK([AEEA-AEEA-γGlu-Undecanoyl(11-OPh(4-COOH))])FIEWLVRGRGEGGGGGASELSTAALGRLSK([AEEA-AEEA-γGlu-Undecanoyl(11-OPh(4-COOH))])ELHELATLPRTETGSGSP-NH2
Human AmyR3 potency [EC50 (pM)] [1]: 28.6 pM | Human GLP-1R potency [EC50 (pM)] (human GLP-1 receptor): 2.5 pM

B15: Compound 0259 (peptide)
peptide: H[Aib]EGTFTSDK([AEEA-AEEA-γGlu-C16 diacid])SSYLEEQAAREFIAWLVRGRGGGGGEASELSTAALGRLSAELHK([AEEA-AEEA-γGlu-C16 diacid])LATLPRTETGSGSP-NH2
Human AmyR3 potency [EC50 (pM)] [1]: 12 pM | Human GLP-1R potency [EC50 (pM)] (human GLP-1 receptor): 15.8 pM

B16: Compound 0260 (peptide)
peptide: H[Aib]EGTFTSDK([AEEA-AEEA-γGlu-C16 diacid])SSYLEEQAAREFIAWLVRGRGGGGGEASELSTAALGRLSAELHELK([AEEA-AEEA-γGlu-C16 diacid])TLPRTETGSGSP-NH2
Human AmyR3 potency [EC50 (pM)] [1]: 41.8 pM | Human GLP-1R potency [EC50 (pM)] (human GLP-1 receptor): 11.9 pM

B17: Compound 0261 (peptide)
peptide: H[Aib]EGTFTSDK([AEEA-AEEA-γGlu-C16 diacid])SSYLEEQAAREFIAWLVRGRGGGGGEASELSTAALGRLSAELHELATLK([AEEA-AEEA-γGlu-C16 diacid])RTETGSGSP-NH2
Human AmyR3 potency [EC50 (pM)] [1]: 23.9 pM | Human GLP-1R potency [EC50 (pM)] (human GLP-1 receptor): 17.4 pM

B18: Compound 0263 (peptide)
peptide: H[Aib]EGTFTSDVSSYLEEQAAREFIAWLVRGRK([AEEA-AEEA-γGlu-Trx-C20 diacid])EASELSTAALGRLSAELHELATLPRTETGSGSP-NH2
Human AmyR3 potency [EC50 (pM)] [1]: 25.2 pM | Human GLP-1R potency [EC50 (pM)] (human GLP-1 receptor): 13.8 pM

B19: Compound 0264 (peptide)
peptide: H[Aib]EGTFTSDVSSYLEEQAAREFIAWLVRGK([AEEA-AEEA-γGlu-Trx-C20 diacid])GGGGEASELSTAALGRLSAELHELATLPRTETGSGSP-NH2
Human AmyR3 potency [EC50 (pM)] [1]: 11.7 pM | Human GLP-1R potency [EC50 (pM)] (human GLP-1 receptor): 6.5 pM

B20: Compound 0265 (peptide)
peptide: H[Aib]EGTFTSDVSSYLEEK([AEEA-AEEA-γGlu-Trx-C20 diacid])AAREFIAWLVRGRGGGGEASELSTAALGRLSAELHELATLPRTETGSGSP-NH2
Human AmyR3 potency [EC50 (pM)] [1]: 8.1 pM | Human GLP-1R potency [EC50 (pM)] (human GLP-1 receptor): 6 pM
